# Test system: Escherichia coli TOP10
# Assay: shrunken log2 fold change of peptide-encoding DNA abundance (4.5 h post-induction vs induction); higher = less antimicrobial activity (less host growth inhibition)
# Conditions: time post-induction: 4.5 h; library: site-saturation at positions 5, 18, 19, 20
# 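Note: peptides expressed intracellularly from a pBAD plasmid library in pooled LB shake-flask culture, induced with 0.3% L-arabinose, DNA abundance read by NGS, three biological replicates, DESeq2 with apeglm shrinkage.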
row,Sequence,shrunken log2 fold change
1,RRIRHRPPRLPRPRPRPGLIPRP,-0.234
2,RRIRDRPPRLPRPRPRPRLIPRP,-0.189
3,RRIRQRPPRLPRPRPRPVLQPRP,-0.107
4,RRIRWRPPRLPRPRPRPYHFPRP,0.0137
5,RRIRVRPPRLPRPRPRPMCKPRP,-0.508
6,RRIRCRPPRLPRPRPRPSQFPRP,-0.787
7,RRIRQRPPRLPRPRPRPHPEPRP,0.0615
8,RRIRVRPPRLPRPRPRPSPVPRP,0.216
9,RRIRERPPRLPRPRPRPDMYPRP,-0.0361
10,RRIRTRPPRLPRPRPRPPLDPRP,0.148
11,RRIRGRPPRLPRPRPRPQAPPRP,0.662
12,RRIRKRPPRLPRPRPRPFSYPRP,-0.324
13,RRIRSRPPRLPRPRPRPELEPRP,0.54
14,RRIRIRPPRLPRPRPRPNTCPRP,-0.85
15,RRIRNRPPRLPRPRPRPGRKPRP,0.132
16,RRIRVRPPRLPRPRPRPNSNPRP,-0.74
17,RRIRGRPPRLPRPRPRPFDDPRP,0.0195
18,RRIRVRPPRLPRPRPRPAGPPRP,0.264
19,RRIRPRPPRLPRPRPRPNKQPRP,0.0754
20,RRIRIRPPRLPRPRPRPWLVPRP,-0.038
21,RRIRSRPPRLPRPRPRPEWHPRP,0.0472
22,RRIRFRPPRLPRPRPRPAARPRP,0.192
23,RRIRRRPPRLPRPRPRPREAPRP,0.254
24,RRIRLRPPRLPRPRPRPNLVPRP,-0.283
25,RRIRHRPPRLPRPRPRPESMPRP,0.0353

row,Sequence,shrunken log2 fold change
1,RRIRTRPPRLPRPRPRPYNKPRP,-1.03
2,RRIRNRPPRLPRPRPRPNIPPRP,-0.24
3,RRIRIRPPRLPRPRPRPNGEPRP,-0.0757
4,RRIRARPPRLPRPRPRPEYSPRP,0.0132
5,RRIRARPPRLPRPRPRPYFRPRP,-0.435
6,RRIRQRPPRLPRPRPRPTVWPRP,0.339
7,RRIRDRPPRLPRPRPRPSGLPRP,0.284
8,RRIRERPPRLPRPRPRPSMQPRP,-0.759
9,RRIRPRPPRLPRPRPRPYHWPRP,-0.449
10,RRIRWRPPRLPRPRPRPIHCPRP,0.0948
11,RRIRERPPRLPRPRPRPFSQPRP,-0.347
12,RRIRGRPPRLPRPRPRPALHPRP,0.866
13,RRIRIRPPRLPRPRPRPCMIPRP,-0.502
14,RRIRCRPPRLPRPRPRPAGDPRP,0.176
15,RRIRTRPPRLPRPRPRPMDVPRP,-0.303
16,RRIRTRPPRLPRPRPRPQDSPRP,-0.153
17,RRIRNRPPRLPRPRPRPDVKPRP,-0.412
18,RRIRMRPPRLPRPRPRPNMQPRP,0.0607
19,RRIRVRPPRLPRPRPRPTITPRP,-0.178
20,RRIRHRPPRLPRPRPRPSTCPRP,-0.0299
21,RRIRHRPPRLPRPRPRPIFDPRP,-0.0378
22,RRIRVRPPRLPRPRPRPVGAPRP,0.329
23,RRIRTRPPRLPRPRPRPLHHPRP,-0.494
24,RRIRGRPPRLPRPRPRPMQMPRP,1.5
25,RRIRFRPPRLPRPRPRPAMTPRP,0.00388

row,Sequence,shrunken log2 fold change
1,RRIRVRPPRLPRPRPRPQARPRP,-0.109
2,RRIRRRPPRLPRPRPRPRWQPRP,0.636
3,RRIRYRPPRLPRPRPRPNMDPRP,-1.3
4,RRIRGRPPRLPRPRPRPSPLPRP,0.539
5,RRIRWRPPRLPRPRPRPYGNPRP,-0.338
6,RRIRVRPPRLPRPRPRPVGCPRP,0.417
7,RRIRARPPRLPRPRPRPNTSPRP,-0.0188
8,RRIRSRPPRLPRPRPRPISHPRP,-0.421
9,RRIRQRPPRLPRPRPRPYNQPRP,-0.536
10,RRIRMRPPRLPRPRPRPMVHPRP,0.0734
11,RRIRFRPPRLPRPRPRPKASPRP,0.157
12,RRIRNRPPRLPRPRPRPGWWPRP,-0.0419
13,RRIRFRPPRLPRPRPRPVQIPRP,-0.0152
14,RRIRFRPPRLPRPRPRPPTPPRP,0.908
15,RRIRDRPPRLPRPRPRPPCYPRP,-0.0706
16,RRIRERPPRLPRPRPRPSCNPRP,-0.0433
17,RRIRYRPPRLPRPRPRPDWDPRP,-0.543
18,RRIRVRPPRLPRPRPRPMNAPRP,0.154
19,RRIRARPPRLPRPRPRPLSGPRP,0.334
20,RRIRNRPPRLPRPRPRPMVPPRP,0.0885
21,RRIRPRPPRLPRPRPRPVWSPRP,0.0634
22,RRIRRRPPRLPRPRPRPGRHPRP,0.212
23,RRIRWRPPRLPRPRPRPFEKPRP,0.0683
24,RRIRHRPPRLPRPRPRPVGEPRP,0.053
25,RRIRWRPPRLPRPRPRPFSAPRP,-0.133

row,Sequence,shrunken log2 fold change
1,RRIRWRPPRLPRPRPRPVGYPRP,0.0334
2,RRIRGRPPRLPRPRPRPVEQPRP,0.0754
3,RRIRERPPRLPRPRPRPYCHPRP,-0.467
4,RRIRIRPPRLPRPRPRPVSCPRP,-0.0157
5,RRIRIRPPRLPRPRPRPFQIPRP,0.0698
6,RRIRHRPPRLPRPRPRPEWTPRP,0.0291
7,RRIRARPPRLPRPRPRPAWLPRP,0.597
8,RRIRDRPPRLPRPRPRPKMFPRP,0.00408
9,RRIRERPPRLPRPRPRPRYSPRP,-0.182
10,RRIRRRPPRLPRPRPRPKVHPRP,0.153
11,RRIRRRPPRLPRPRPRPKMCPRP,-0.0385
12,RRIRKRPPRLPRPRPRPGWGPRP,0.432
13,RRIRERPPRLPRPRPRPFQAPRP,-0.215
14,RRIRQRPPRLPRPRPRPLRAPRP,0.825
15,RRIRIRPPRLPRPRPRPLMHPRP,-0.384
16,RRIRMRPPRLPRPRPRPQADPRP,0.639
17,RRIRHRPPRLPRPRPRPLECPRP,-0.257
18,RRIRHRPPRLPRPRPRPMMFPRP,-0.18
19,RRIRERPPRLPRPRPRPPKSPRP,0.21
20,RRIRNRPPRLPRPRPRPEYWPRP,-0.103
21,RRIRERPPRLPRPRPRPNWVPRP,-0.0244
22,RRIRNRPPRLPRPRPRPGWAPRP,0.135
23,RRIRQRPPRLPRPRPRPQFLPRP,-0.359
24,RRIRKRPPRLPRPRPRPELVPRP,0.133
25,RRIRWRPPRLPRPRPRPGELPRP,0.532

row,Sequence,shrunken log2 fold change
1,RRIRCRPPRLPRPRPRPCDFPRP,-0.0328
2,RRIRMRPPRLPRPRPRPHQTPRP,0.184
3,RRIRHRPPRLPRPRPRPGSDPRP,-0.014
4,RRIRSRPPRLPRPRPRPCVTPRP,0.0116
5,RRIRRRPPRLPRPRPRPYTCPRP,0.0906
6,RRIRERPPRLPRPRPRPHVKPRP,-0.767
7,RRIRLRPPRLPRPRPRPCDMPRP,-0.0352
8,RRIRMRPPRLPRPRPRPWLAPRP,0.0737
9,RRIRGRPPRLPRPRPRPAVYPRP,0.742
10,RRIRDRPPRLPRPRPRPPPRPRP,1.1
11,RRIRERPPRLPRPRPRPAQYPRP,0.0972
12,RRIRGRPPRLPRPRPRPYIRPRP,-0.111
13,RRIRFRPPRLPRPRPRPRQEPRP,0.0178
14,RRIRTRPPRLPRPRPRPSAHPRP,-0.229
15,RRIRVRPPRLPRPRPRPHETPRP,-0.0244
16,RRIRRRPPRLPRPRPRPGMPPRP,0.463
17,RRIRMRPPRLPRPRPRPTIYPRP,0.713
18,RRIRERPPRLPRPRPRPPDDPRP,0.103
19,RRIRVRPPRLPRPRPRPNYDPRP,0.273
20,RRIRWRPPRLPRPRPRPKITPRP,0.0282
21,RRIRLRPPRLPRPRPRPASSPRP,-0.0827
22,RRIRPRPPRLPRPRPRPIWHPRP,-0.0776
23,RRIRKRPPRLPRPRPRPNENPRP,0.304
24,RRIRHRPPRLPRPRPRPEDYPRP,0.0112
25,RRIRFRPPRLPRPRPRPMPMPRP,-0.00868

row,Sequence,shrunken log2 fold change
1,RRIRGRPPRLPRPRPRPFGYPRP,-0.0838
2,RRIRIRPPRLPRPRPRPEFTPRP,-0.1
3,RRIRVRPPRLPRPRPRPNKKPRP,-0.0801
4,RRIRCRPPRLPRPRPRPDRFPRP,0.0616
5,RRIRVRPPRLPRPRPRPMHNPRP,-0.268
6,RRIRCRPPRLPRPRPRPCKPPRP,-0.216
7,RRIRSRPPRLPRPRPRPITYPRP,-0.361
8,RRIRMRPPRLPRPRPRPIWAPRP,0.114
9,RRIRCRPPRLPRPRPRPAPSPRP,0.504
10,RRIRSRPPRLPRPRPRPHKKPRP,-0.0645
11,RRIRKRPPRLPRPRPRPQPSPRP,0.567
12,RRIRWRPPRLPRPRPRPVPPPRP,0.372
13,RRIRWRPPRLPRPRPRPYMRPRP,0.0516
14,RRIRHRPPRLPRPRPRPIEWPRP,-0.02
15,RRIRKRPPRLPRPRPRPTDDPRP,1.01
16,RRIRHRPPRLPRPRPRPPMFPRP,-0.214
17,RRIRTRPPRLPRPRPRPFPHPRP,-0.247
18,RRIRHRPPRLPRPRPRPIHHPRP,-0.216
19,RRIRARPPRLPRPRPRPNGTPRP,0.021
20,RRIRDRPPRLPRPRPRPIYQPRP,-0.431
21,RRIRLRPPRLPRPRPRPTCLPRP,-0.255
22,RRIRQRPPRLPRPRPRPGNMPRP,-0.0822
23,RRIRSRPPRLPRPRPRPYPGPRP,-0.199
24,RRIRWRPPRLPRPRPRPRFFPRP,0.326
25,RRIRFRPPRLPRPRPRPVFFPRP,0.00921

# From the supplement of paper PMC9112550, “Optimization of the antimicrobial peptide Bac7 by deep mutational scanning” (BMC Biology, 2022)
